B1: Gamma-crystallin C, residues 91 to 170; numbered along this chain, P07315 (parent)
chain: RLYEREDHKGLMMELSEDCPSIQDRFHLSEIRSLHVLEGCWVLYELPNYRGRQYLLRPQEYRRCQDWGAMDAKAGSLRRV

Variants of: B1
Assay: abundance fitness (aPCA) (normalised: wild type 0, dead -1); higher = more abundant; growth selection in yeast, the domain comes from the species named
Details: Homo sapiens

Abundance fitness, by site and new letter:
G39: Y -0.566 | E -0.186 | A -0.56 | L -0.89 | H -0.151 | W -0.94 | D -0.298 | N -0.65 | T -0.892 | M -0.93 | P -0.798 | V -0.924 | F -0.759 | C -0.536 | Q -0.853
E38: V -0.222 | K -0.083 | A -0.059 | G -0.186 | D 0.013 | H -0.119 | P -0.642 | N 0.102 | M -0.222 | Q 0.171 | S -0.015 | F -0.216 | I -0.711 | C -0.242 | L -0.379
S33: W -0.98 | T -1.04 | G -0.872 | V -1.01 | F -0.99 | H -0.933 | L -0.865 | M -0.673 | Y -0.424 | I -0.492 | R -0.9 | K -0.957 | D -1.07 | Q -1.03
R32: W -0.631 | N -0.146 | Y -0.417 | K -0.018 | L -0.359 | G 0.082 | D -0.89 | Q -0.279 | M -0.412 | P -0.146 | V -0.808 | H 0.009 | S -0.466 | I -0.587 | F -0.683 | A -0.302 | E -0.478 | C -0.178
L37: M -0.158 | F -0.263 | H -0.351 | V -0.033 | Y -0.3 | T -0.326 | I -0.062 | S -0.372 | A -0.553 | N -0.363 | E -0.481 | C -0.578 | D -0.254 | P -0.813 | K -0.136 | Q -0.256 | W -0.799
H35: C -0.206 | F -0.325 | K -0.029 | L -0.15 | A -0.053 | V 0.036 | D -0.107 | Y -0.202 | N -0.09 | I -0.004 | G -0.845 | E 0.139 | W -0.354 | P -0.789 | T 0.081 | S -0.05 | M -0.222
L34: T -0.848 | W -0.486 | V -0.043 | A -0.064 | I 0.056 | Q -0.781 | G -0.725 | D -0.579 | F -0.097 | M 0.027 | C -0.161 | Y -0.572 | S -0.897 | E -0.537
C40: V 0.002 | R -0.138 | K -0.202 | S 0.041 | G -0.186 | P -0.446 | A -0.025 | L -0.042 | W -0.103 | Q 0.055 | D 0.058 | E 0.052 | I -0.222 | H -0.09 | Y -0.284 | T 0.07 | N 0.119
I31: P -0.951 | W -0.848 | Q -0.992 | R -0.776 | S -0.665 | N -0.912 | T -0.789
Y44: F -0.069 | A -0.671 | E -0.957 | G -0.608
V36: A -0.783 | Y -0.947 | C -0.836 | W -0.788 | I -0.013 | G -0.76 | N -0.772 | M -0.742 | S -0.969 | L -0.632 | Q -0.713 | R -1.08 | E -0.88
L43: P -0.992 | C -0.701 | S -0.865 | V -0.81 | G -0.721 | T -0.674 | I -0.251 | M -0.099 | F -0.645 | E -0.804 | N -0.673 | A -0.931 | Q -0.606 | H -0.757 | R -1.01 | Y -0.224

From the Human Domainome abundance scans (Beltran et al. 2025)
